In PMC11883276:

Assays:
[1] = target: endogenous human E-cadherin on MCF-7 cells (human) (UniProt P12830)
[2] = target: full-length wild-type human N-cadherin on A431-D cells (A431-D^N-cad; A431-D^N-cad+FGFR) (human) (UniProt P19022)
[3] = target: full-length human E-cadherin fused to GFP at the C-terminus, on A431-D cells (A431-D^E-cad) (human) (UniProt P12830)
[4] = target: full-length wild-type human N-cadherin on A431-D cells (A431-D^N-cad; A431-D^N-cad+FGFR) (human) (UniProt P19022); remark: listed apart in the source
[5] = target: Fc-tagged extracellular domain of N-cadherin (N-cad-Fc) (UniProt P19022); assay: density of cells attached to cadherin-coated substrates; A431-D^E-cad or A431-D^N-cad+FGFR cells counted 90 min after seeding in 0.5% serum with the fibronectin-blocking antibody 16G3 on E-cad-Fc or N-cad-Fc substrates; further samples treated with Gefitinib, BGJ398, DECMA-1 or anti-N-cad antibody
[6] = target: Fc-tagged extracellular domain of E-cadherin (E-cad-Fc) (UniProt P12830); assay: as above
[7] = target: Fc-tagged extracellular domain of N-cadherin (N-cad-Fc) (UniProt P19022)
[8] = target: Fc-tagged extracellular domain of E-cadherin (E-cad-Fc) (UniProt P12830)
[9] = target: Fc-tagged extracellular domain of N-cadherin (N-cad-Fc) (UniProt P19022); assay: capillary shear flow cell adhesion assay; cadherin-Fc (50 µg/ml) physisorbed on the inner walls of glass capillaries, blocked with BSA; A431-D^E-cad or A431-D^N-cad cells bound 20 min under static conditions, room temperature, low-serum medium with 2 mM Ca2+, then flow increased every 30 s; WSS50 from fits to Eqn 1
[10] = target: Fc-tagged extracellular domain of N-cadherin (N-cad-Fc) (UniProt P19022); remark: listed apart in the source
[11] = target: Fc-tagged extracellular domain of E-cadherin (E-cad-Fc) (UniProt P12830); remark: listed apart in the source
[12] = target: Fc-tagged extracellular domain of N-cadherin (N-cad-Fc) (UniProt P19022); remark: listed apart in the source
[13] = target: Fc-tagged extracellular domain of E-cadherin (E-cad-Fc) (UniProt P12830); remark: listed apart in the source
[14] = target: Fc-tagged extracellular domain of N-cadherin (N-cad-Fc) (UniProt P19022); assay: capillary shear flow cell adhesion assay; as a1, but with A431-D^N-cad+FGFR cells (N-cad co-expressed with FGFR1) on N-cad-Fc-coated capillaries

Fc-tagged extracellular domain of E-cadherin (E-cad-Fc) (from UniProt P12830 155-709) (Fc fusion)
relative change of cell stiffness during bead twisting (MTC), E-cad beads on MCF-7 cells [1]: 17%
relative change of cell stiffness during bead twisting (MTC), E-cad beads on A431-D^N-cad cells (no FGFR) [2]: -1%
relative change of cell stiffness during bead twisting (MTC), E-cad beads on A431-D^E-cad cells [3]: 16%

Fc-tagged extracellular domain of N-cadherin (N-cad-Fc) (from UniProt P19022 160-724) (Fc fusion)
relative change of cell stiffness during bead twisting (MTC), N-cad beads on A431-D^N-cad cells (no FGFR) [2]: 4%
relative change of cell stiffness during bead twisting (MTC), N-cad beads on A431-D^E-cad cells [3]: -3.6%
relative change of cell stiffness during bead twisting (MTC), N-cad beads on A431-D^N-cad+FGFR cells [4]: 17%

full-length human E-cadherin fused to GFP at the C-terminus, on A431-D cells (A431-D^E-cad) (from UniProt P12830 23-882) (receptor)
density of cells retained on the substrate [5]: 19 cells/mm^2
density of cells retained on the substrate [6]: 25 cells/mm^2
RMS traction stress of A431-D^E-cad cells on N-cad-Fc-coated 40 kPa gels, 0.5% serum [7]: 82 Pa
RMS traction stress of A431-D^E-cad cells on E-cad-Fc-coated 40 kPa gels, 0.5% serum [8]: 160 Pa

full-length wild-type human N-cadherin on A431-D cells (A431-D^N-cad; A431-D^N-cad+FGFR) (from UniProt P19022 26-906) (receptor)
WSS50 (wall shear stress at which 50% of the cells are retained) [9]: 15 dynes/cm^2
RMS traction stress of A431D^N-cad cells (no FGFR) on N-cad-Fc-coated 40 kPa gels [10]: 85 Pa
RMS traction stress of A431D^N-cad cells (no FGFR) on E-cad-Fc-coated 40 kPa gels [11]: 88 Pa
RMS traction stress of A431-D^N-cad+FGFR cells on N-cad-Fc-coated 40 kPa gels, 0.5% serum [12]: 176 Pa
RMS traction stress of A431-D^N-cad+FGFR cells on E-cad-Fc-coated 40 kPa gels, 0.5% serum [13]: 100 Pa
WSS50 (wall shear stress at which 50% of the cells are retained) [14]: 17 dynes/cm^2
density of cells attached to the substrate [5]: 22 cells/mm²
density of cells attached to the substrate [6]: 15 cells/mm²
